Measurements: patent publication US20250115926A1, “DEREGULATED DHS AND TYRA ENZYMES OF GRASSES ENABLE EFFICIENT PRODUCTION OF BOTH TYROSINE AND PHENYLALANINE” (Wisconsin Alumni Research Foundation, priority 2023, published 2025)

B1: SbTyrAnc: non-canonical TyrA enzyme of Sorghum bicolor, SEQ ID NO: 43 (protein)
chain: MASSLRHFAGLGCFPAVASTSGSTCCLRRYTPNFCAFVALRPISPPAATATATAKALTSPSPVEQHLQAVVPCHGISDPPAASSAAAVPAAPLRVGIVGFGNFGQFIAGGLQRQGHVVLAASRSDYSVYCASHGIRFFRSVDALCEEQPDVLLICSSILSTEGVVRAIPFRKLRHDTIVADVLSVKEFPRNLLLEVLPPGFGIICTHPMFGPESGKHGWGKLPFVFDKVRVAEDGDQAAKCDQFLSIFEQEGCRMVEMSCAEHDRYAAGSQFITHTIGRVLSQLNLKSTPINTKGYETLLQLTKNTVSDSFDLYYGLFMYNVNATEQLDKLEMAFEKVRQMLSGRLHDFIRKQIVERAAHVPADPSGKLANGLSSSPAARLL
modifications: Sorghum bicolor
B2: BdTyrAnc: non-canonical TyrA enzyme of Brachypodium distachyon, SEQ ID NO: 37 (protein)
chain: MASSLVHLSSPAGGRTAAAPPSLLSRFSPNFCAFATLRPGPTRPTAATPKHARARTCAEQEQKQEVAAPCRDAYEKPAVWNTTAADSAEAAPPLRVGIIGFGNFGQFIARGIQRQGHAVLATSRSDYSAYCSAQGIRYFRSLEALCEEQPNVLLVCSSILSTEAVVRAIPFHKLRSDTIVADVLSVKQFPRNLLLEILPPEFGIVCTHPMFGPESGKHGWSTLPFVYDKVRLADKGDQKANCGQFLSIFEGEGCRMVEMSCAEHDRHAAASQFITHTIGRVLAQLNLKSTPINTKGFEALLKLTENTVSDSFDLYYGLFMYNVNATEQIEKLERAFEKVKQMLYGRLHDILRKQIVERVPI
modifications: Brachypodium distachyon
B3: BdTyrA2: TyrA2 arogenate dehydrogenase of Brachypodium distachyon, SEQ ID NO: 35 (protein)
chain: MSSSGRFHQPPSCRRPAALAQSLRASTTTVTCRWRQQYHHPLAAAPLRLRAVPVRATDAARQPFDHLSGAVKSEEGTHPRLKIAIVGFGNYGQFLARTMVQQGHTVLAHSRSDHSAAAATIGASFYADAHDLCECQPDVVLLSTSILSAEAVLRSLPVHRFRRSTLFADVLSVKEFPKNLLLAYLPGDFDVICTHPMFGPESARDGWAGLPFVFDEVRVGDGPARRARADAFLDVFAREGCRMVEMSCAEHDAHAAETQFLTHTVGRMLATLDLKSTPINTKGYETLLRLVDNTCSDSFDLYNGLFMYNNNATELLHRLESAMDSVKRRLFDGLHEVLRRQLFEGSPPLNRDSSFPAESSLDDGR
modifications: Brachypodium distachyon

Legend:
[1] = test system: Nicotiana benthamiana leaves; experiment: Transient expression of TyrA genes in Nicotiana benthamiana leaves (CaMV 35S promoter), tyrosine by HPLC; format: in vivo; details: infiltrated leaves, 72 hours
Procedure: Agrobacterium tumefaciens strain GV3101 transformed with the plant expression constructs were grown at 28° C. for 24 to 36 hours in 10 mL of LB liquid media containing the corresponding antibiotics. The saturated cultures were spun down at 3,000 g for 5 minutes at room temperature and washed twice with 3 mL of induction media (IM; 10 mM MES [2-(N-morpholino) ethanesulfonic acid] buffer pH 5.6, 0.5% glucose, 2 mM NaH2PO4, 20 mM NH4Cl, 1 mM MgSO4, 2 mM KCl, 0.1 mM CaCl2), 0.01 mM FeSO4, and 0.2 mM acetosyringone). After washing, bacteria cultures were incubated in IM for 2 to 3 hours at room temperature in the dark, pelleted at 3000 g for 5 minutes, and resuspended into 3 mL of 10 mM MES buffer pH 5.6 with 0.2 mM acetosyringone. OD600nm was adjusted to a final density of 0.25 units for pAGM4673::TyrA (FIG. 3F) and pICH47822::DHS (FIG. 5A) infiltration, or 0.5 units for pAGM4673::TyrA-DHS co-expression constructs (FIG. 5B) using 10 mM MES buffer pH 5.6 with 0.2 mM acetosyringone. For infiltration of pICH47822::DHS constructs, the Agrobacterium suspensions were adjusted to OD600nm=0.5 and mixed with an equal volume of a suspension of an Agrobacterium clone transformed with pICH4780::p19 under control of the Arabidopsis ubiquitin ligase promoter adjusted to OD600nm=0.5, resulting in a final mixture of 0.25 OD600nm units for each construct. […] Nicotiana benthamiana plants of around 4-weeks-old were infiltrated close to the end of the light period into four different spots per plant, distributed into two leaves at two infiltrations per leaf, with each individual spot corresponding with a different construct/treatment. […]
The infiltrated leaf areas, excluding the midrib and major veins, were harvested at 72 hours after infiltration and frozen immediately in liquid nitrogen. […] A tyrosine peak was detected at the retention time of ˜3.5 minutes using fluorescence detection mode (excitation wavelength 274 nm, emission wavelength 303 nm) and quantified with an authentic tyrosine standard (Alfa Acsar, catalog number AAA1114118). […]

[2] = test system: Nicotiana benthamiana leaves; experiment: Co-expression of BdTyrA and BdDHS enzymes in Nicotiana benthamiana leaves; format: in vivo
Description: Gene expression data in Brachypodium (FIG. 4B) indicate that BdTyrA1 is co-expressed with BdDHS1b and BdPTAL in the internodes, where we detected a high rate of tyrosine production (FIG. 2). […] We therefore hypothesized that BdTyrA1 and BdDHS1b may co-operate in the high production of tyrosine and phenylalanine observed in grass tissues. To test this possibility, we co-expressed in planta different combinations of BdTyrA enzymes and BdDHS enzymes and measured the impact on phenylalanine and tyrosine levels. To this end, we took advantage of the Golden Gate modular cloning system^52 and assembled the BdTyrA and BdDHS expression cassettes into the same vector backbone (FIG. 13). To avoid causing a strong over-expression, BdTyrA and BdDHS were driven by RuBisCO small subunit promoters from Arabidopsis (PAtRbcS3B) and tomato (PSIRbcS3A), respectively (FIG. 13)^51. […] Similarly, no significant additive effects were observed upon co-expression of the BdTyrA enzymes with feedback-regulated BdDHS2 (FIG. 5B).
Agrobacterium tumefaciens strain GV3101 transformed with the plant expression constructs were grown at 28° C. for 24 to 36 hours in 10 mL of LB liquid media containing the corresponding antibiotics. […]
Aromatic amino acids and shikimate were detected using a Vanquish Horizon Binary UHPLC (Thermo Scientific) coupled to a Q Exactive mass spectrometer (Thermo Scientific). […]

[3] = TyrA feedback inhibition by tyrosine (recombinant enzymes); format: biochemical; details: FIG. 12

| Molecule | tyrosine content compared to the GUS control [1] | tyrosine levels relative to the tdTom+YPet control ([2]; RuBisCO small subunit promoters (FIG. 5B)) [times] | decrease of phenylalanine levels compared to YPet with tdTom control ([2]; expressed with tdTom control (FIG. 5B)) [times] | type of inhibition by tyrosine with respect to arogenate [3] |
| --- | --- | --- | --- | --- |
| B1 | 14 times | – | – | – |
| B2 | 8 times | ~100 | 4 | competitive |
| B3 | did not significantly increase tyrosine levels | – | – | – |
